Results published in PMC9482650, “Quantitative fragmentomics allow affinity mapping of interactomes” (Nature Communications, 2022).

T1: DVL3, Q92997
T1 sequence (Q92997 244-331, limits assumed, looked up): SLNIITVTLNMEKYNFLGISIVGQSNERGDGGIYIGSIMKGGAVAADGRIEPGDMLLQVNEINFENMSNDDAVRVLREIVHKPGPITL

T2: DFNB31_1, Q9P202
T2 sequence (Q9P202 135-233, limits assumed, looked up): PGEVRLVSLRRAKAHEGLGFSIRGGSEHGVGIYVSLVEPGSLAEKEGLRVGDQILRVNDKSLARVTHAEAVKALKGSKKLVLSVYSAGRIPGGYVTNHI

T3: HTRA3, P83110
T3 sequence (P83110 354-453, limits assumed, looked up): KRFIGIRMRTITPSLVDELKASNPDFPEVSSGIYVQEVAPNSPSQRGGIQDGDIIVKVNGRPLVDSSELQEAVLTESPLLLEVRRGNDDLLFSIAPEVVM

T4: SYNJ2BP, P57105
T4 sequence (P57105 8-110, limits assumed, looked up): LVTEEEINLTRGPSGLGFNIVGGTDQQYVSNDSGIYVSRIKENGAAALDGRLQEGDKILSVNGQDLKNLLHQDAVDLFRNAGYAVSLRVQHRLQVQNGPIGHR

T5: TX1BP3, O14907
T5 sequence (O14907 10-122, limits assumed, looked up): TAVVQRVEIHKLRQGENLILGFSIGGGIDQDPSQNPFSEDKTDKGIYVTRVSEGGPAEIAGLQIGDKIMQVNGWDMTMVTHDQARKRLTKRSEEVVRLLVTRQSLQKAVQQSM

T6: NHERF3_4, Q5T2W1
T6 sequence (Q5T2W1 373-468, limits assumed, looked up): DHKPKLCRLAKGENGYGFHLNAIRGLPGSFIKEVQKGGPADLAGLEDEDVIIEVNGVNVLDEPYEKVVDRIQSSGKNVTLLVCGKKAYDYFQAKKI

T7: GRIP1_3, Q9Y3R0
T7 sequence (Q9Y3R0 247-346, limits assumed, looked up): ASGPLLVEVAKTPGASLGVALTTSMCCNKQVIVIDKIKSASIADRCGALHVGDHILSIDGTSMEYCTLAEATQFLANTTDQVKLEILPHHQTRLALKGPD

T8: GRIP1_4, Q9Y3R0
T8 sequence (Q9Y3R0 467-571, limits assumed, looked up): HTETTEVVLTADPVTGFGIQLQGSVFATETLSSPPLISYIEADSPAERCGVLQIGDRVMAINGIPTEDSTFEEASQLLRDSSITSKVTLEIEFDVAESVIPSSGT

T9: PDZD7_3, Q9H5P4
T9 sequence (Q9H5P4 857-944, limits assumed, looked up): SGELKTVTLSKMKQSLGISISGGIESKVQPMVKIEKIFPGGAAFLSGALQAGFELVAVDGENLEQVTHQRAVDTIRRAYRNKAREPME

T10: APBA1_1, Q02410
T10 sequence (Q02410 651-752, limits assumed, looked up): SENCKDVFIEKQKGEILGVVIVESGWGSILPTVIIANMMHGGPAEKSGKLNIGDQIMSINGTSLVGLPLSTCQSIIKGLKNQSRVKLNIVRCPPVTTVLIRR


What was measured:
Experiment in all cases: holdup assay
Parameters in all cases: key: below the threshold = too weak to quantify, mostly under pKd 3.1 to 4
Conditions in all cases: plain residues with an end cap or a label only (N-terminal biotin on a linker: ttds)
DVL3, Q92997 = target: T1, DVL3, Q92997
DFNB31_1, Q9P202 = target: T2, DFNB31_1, Q9P202
NHERF4_4, Q86UT5 = target: NHERF4_4, Q86UT5
Sequence of NHERF4_4, Q86UT5 (Q86UT5 464-550): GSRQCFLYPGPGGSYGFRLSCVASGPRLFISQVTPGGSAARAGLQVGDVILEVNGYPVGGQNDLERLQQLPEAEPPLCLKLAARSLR

DLG4_2, P78352 = target: DLG4_2, P78352
Sequence of DLG4_2, P78352 (P78352 155-259): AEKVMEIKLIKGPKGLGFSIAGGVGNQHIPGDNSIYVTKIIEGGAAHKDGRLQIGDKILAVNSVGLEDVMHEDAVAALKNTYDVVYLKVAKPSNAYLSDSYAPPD

Inadl_2, Q8NI35 = target: Inadl_2, Q8NI35
Sequence of Inadl_2, Q8NI35 (Q8NI35 238-335): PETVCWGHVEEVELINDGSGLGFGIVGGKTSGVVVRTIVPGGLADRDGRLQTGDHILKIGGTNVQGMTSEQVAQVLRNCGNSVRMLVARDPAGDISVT

SCRIB_2, Q14160 = target: SCRIB_2, Q14160
Sequence of SCRIB_2, Q14160 (Q14160 857-960): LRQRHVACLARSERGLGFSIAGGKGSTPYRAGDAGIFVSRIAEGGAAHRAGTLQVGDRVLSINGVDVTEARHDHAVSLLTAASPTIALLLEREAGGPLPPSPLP

HTRA3, P83110 = target: T3, HTRA3, P83110
IL16_4, Q14005 = target: IL16_4, Q14005
Sequence of IL16_4, Q14005 (Q14005 1229-1329): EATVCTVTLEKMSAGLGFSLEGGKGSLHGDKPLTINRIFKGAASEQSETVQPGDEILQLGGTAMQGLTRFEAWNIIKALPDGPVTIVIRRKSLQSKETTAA

Inadl_3, Q8NI35 = target: Inadl_3, Q8NI35
Sequence of Inadl_3, Q8NI35 (Q8NI35 359-469): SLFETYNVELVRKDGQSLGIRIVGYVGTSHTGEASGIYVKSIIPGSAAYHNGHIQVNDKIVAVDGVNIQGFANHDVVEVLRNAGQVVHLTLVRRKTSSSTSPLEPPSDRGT

SYNJ2BP, P57105 = target: T4, SYNJ2BP, P57105
LNX1_1, Q8TBB1 = target: LNX1_1, Q8TBB1
Sequence of LNX1_1, Q8TBB1 (Q8TBB1 261-371): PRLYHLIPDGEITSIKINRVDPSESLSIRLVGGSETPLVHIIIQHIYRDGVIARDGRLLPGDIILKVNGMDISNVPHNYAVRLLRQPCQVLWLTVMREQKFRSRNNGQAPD

TJP1_3, Q07157 = target: TJP1_3, Q07157
Sequence of TJP1_3, Q07157 (Q07157 416-512): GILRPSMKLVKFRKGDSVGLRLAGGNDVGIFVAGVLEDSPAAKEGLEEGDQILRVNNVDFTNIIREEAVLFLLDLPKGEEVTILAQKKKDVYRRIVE

SCRIB_1, Q14160 = target: SCRIB_1, Q14160
Sequence of SCRIB_1, Q14160 (Q14160 718-814): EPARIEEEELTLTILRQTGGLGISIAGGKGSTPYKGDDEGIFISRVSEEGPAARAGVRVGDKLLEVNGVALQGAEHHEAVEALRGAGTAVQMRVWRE

TX1BP3, O14907 = target: T5, TX1BP3, O14907
NHERF3_4, Q5T2W1 = target: T6, NHERF3_4, Q5T2W1
AHNAK1, Q09666 = target: AHNAK1, Q09666
Sequence of AHNAK1, Q09666 (Q09666 4-100): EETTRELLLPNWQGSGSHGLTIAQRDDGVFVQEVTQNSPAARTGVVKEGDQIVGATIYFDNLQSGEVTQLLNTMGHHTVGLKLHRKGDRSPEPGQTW

GRIP1_3, Q9Y3R0 = target: T7, GRIP1_3, Q9Y3R0
GRIP1_4, Q9Y3R0 = target: T8, GRIP1_4, Q9Y3R0
GRIP2_7, Q9C0E4 = target: GRIP2_7, Q9C0E4
Sequence of GRIP2_7, Q9C0E4 (Q9C0E4 934-1023): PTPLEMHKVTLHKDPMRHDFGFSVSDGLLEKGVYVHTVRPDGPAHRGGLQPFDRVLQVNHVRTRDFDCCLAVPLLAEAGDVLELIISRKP

Inadl_10, Q8NI35 = target: Inadl_10, Q8NI35
Sequence of Inadl_10, Q8NI35 (Q8NI35 1673-1763): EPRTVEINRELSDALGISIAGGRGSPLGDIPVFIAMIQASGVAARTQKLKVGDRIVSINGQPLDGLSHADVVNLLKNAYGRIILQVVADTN

MAGI2_3, Q86UL8 = target: MAGI2_3, Q86UL8
Sequence of MAGI2_3, Q86UL8 (Q86UL8 600-682): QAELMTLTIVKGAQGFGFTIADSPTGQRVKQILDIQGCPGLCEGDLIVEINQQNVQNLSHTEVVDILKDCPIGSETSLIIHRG

MAST2, Q6P0Q8 = target: MAST2, Q6P0Q8
Sequence of MAST2, Q6P0Q8 (Q6P0Q8 1099-1202): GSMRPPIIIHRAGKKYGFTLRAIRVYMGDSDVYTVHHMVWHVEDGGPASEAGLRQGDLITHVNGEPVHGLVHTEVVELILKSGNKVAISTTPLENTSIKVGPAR

PDZD7_3, Q9H5P4 = target: T9, PDZD7_3, Q9H5P4
HTRA2, O43464 = target: HTRA2, O43464
Sequence of HTRA2, O43464 (O43464 355-458): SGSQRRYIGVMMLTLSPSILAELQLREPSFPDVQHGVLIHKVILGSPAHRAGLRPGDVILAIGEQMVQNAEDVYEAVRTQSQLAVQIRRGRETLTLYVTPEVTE

FRMPD4, Q14CM0 = target: FRMPD4, Q14CM0
Sequence of FRMPD4, Q14CM0 (Q14CM0 67-160): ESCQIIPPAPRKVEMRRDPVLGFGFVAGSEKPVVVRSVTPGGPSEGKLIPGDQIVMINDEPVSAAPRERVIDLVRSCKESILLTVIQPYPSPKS

TJP2_1, Q9UDY2 = target: TJP2_1, Q9UDY2
Sequence of TJP2_1, Q9UDY2 (Q9UDY2 24-128): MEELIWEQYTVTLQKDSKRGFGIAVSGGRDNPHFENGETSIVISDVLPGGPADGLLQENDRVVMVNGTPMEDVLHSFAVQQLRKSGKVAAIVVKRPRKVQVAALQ

GIPC2, Q8TF65 = target: GIPC2, Q8TF65
Sequence of GIPC2, Q8TF65 (Q8TF65 112-203): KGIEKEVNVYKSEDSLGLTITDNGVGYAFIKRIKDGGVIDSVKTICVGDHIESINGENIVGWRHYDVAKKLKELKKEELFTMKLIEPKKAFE

APBA1_1, Q02410 = target: T10, APBA1_1, Q02410

Row | pKd (DVL3, Q92997) | pKd (DFNB31_1, Q9P202) | pKd (NHERF4_4, Q86UT5) | pKd (DLG4_2, P78352) | pKd (Inadl_2, Q8NI35) | pKd (SCRIB_2, Q14160) | pKd (HTRA3, P83110) | pKd (IL16_4, Q14005) | pKd (Inadl_3, Q8NI35) | pKd (SYNJ2BP, P57105) | pKd (LNX1_1, Q8TBB1) | pKd (TJP1_3, Q07157) | pKd (SCRIB_1, Q14160) | pKd (TX1BP3, O14907) | pKd (NHERF3_4, Q5T2W1) | pKd (AHNAK1, Q09666) | pKd (GRIP1_3, Q9Y3R0) | pKd (GRIP1_4, Q9Y3R0) | pKd (GRIP2_7, Q9C0E4) | pKd (Inadl_10, Q8NI35) | Binder | further results
1 | below the threshold | 3.57 | 3.47 | 3.83 | below the threshold | 3.9 | 3.54 | below the threshold | below the threshold | 5.1 | 3.58 | below the threshold | 4.46 | 4.76 | 3.81 | 3.75 | below the threshold | below the threshold | 3.49 | below the threshold | QSARYRDTEL [TJP2, Q9UDY2] | pKd (MAGI2_3, Q86UL8): below the threshold; pKd (MAST2, Q6P0Q8): 5.7; pKd (PDZD7_3, Q9H5P4): 3.69; pKd (HTRA2, O43464): below the threshold; pKd (FRMPD4, Q14CM0): 4.35; pKd (TJP2_1, Q9UDY2): below the threshold; pKd (GIPC2, Q8TF65): below the threshold; pKd (APBA1_1, Q02410): below the threshold
2 | below the threshold | 3.82 | below the threshold | 3.62 | below the threshold | 3.83 | below the threshold | below the threshold | below the threshold | 4.62 | below the threshold | below the threshold | 4.57 | 3.83 | below the threshold | below the threshold | below the threshold | below the threshold | below the threshold | below the threshold | GQDSREETQL [KCNT2, Q6UVM3] | pKd (MAGI2_3, Q86UL8): below the threshold; pKd (MAST2, Q6P0Q8): 5.91; pKd (PDZD7_3, Q9H5P4): 4.47; pKd (HTRA2, O43464): below the threshold; pKd (FRMPD4, Q14CM0): 4.48; pKd (TJP2_1, Q9UDY2): below the threshold; pKd (GIPC2, Q8TF65): 3.79; pKd (APBA1_1, Q02410): below the threshold
3 | below the threshold | 4.03 | below the threshold | 4.71 | below the threshold | 4.72 | below the threshold | below the threshold | below the threshold | 5.41 | below the threshold | below the threshold | 5.53 | 4.21 | below the threshold | below the threshold | below the threshold | below the threshold | below the threshold | below the threshold | VLRLQSETSV [VANGL1, Q8TAA9] | pKd (MAGI2_3, Q86UL8): below the threshold; pKd (MAST2, Q6P0Q8): 5.56; pKd (PDZD7_3, Q9H5P4): below the threshold; pKd (HTRA2, O43464): below the threshold; pKd (FRMPD4, Q14CM0): below the threshold; pKd (TJP2_1, Q9UDY2): below the threshold; pKd (GIPC2, Q8TF65): 3.75; pKd (APBA1_1, Q02410): below the threshold
